Results as given in PMC8115288, “INI1/SMARCB1 Rpt1 domain mimics TAR RNA in binding to integrase to facilitate HIV-1 replication” (Nature Communications, 2021).

Target: T1, GST-CTD (C-terminal domain of HIV-1 integrase, aa 201-288) (HIV-1 (Hx3B), UniProt P04585 1348-1435)
T1 construct: Integrase (IN) of HIV-1, C-terminal domain aa 201-288; template HIV-1 Hx3B DNA (P04585 is isolate HXB2); also called IN-CTD; GST-IN-CTD(aa 201-288); source: pGEX3xPL construct; on glutathione sepharose 4B beads (pull-down) or as GST-tagged protein (AlphaScreen)
Assay: AlphaScreen or HTRF; competition: GST-CTD (0.03 uM) with Bio-TAR RNA (0.1 uM), increasing INI1(183-304) as third component; low salt; four-parameter dose-response fit
Settings: both partners purified

B1: His6-SUMO-INI1_(183-304) (domain or fragment, UniProt Q12824 183-304, looked up)
chain: PEVLVPIRLDMEIDGQKLRDAFTWNMNEKLMTPEMFSEILCDDLDLNPLTFVPAIASAIRQQIESYPTDSILEDQSDQRVIIKLNIHVGNISLVDQFEWDMSEKENSPEKFALKLCSELGLG
notes: INI1/SMARCB1, residues 183-304 (Rpt1, linker and part of Rpt2); Vector pET28a-h6-smt3; also called 6His-SUMO-INI1_(183-304); source: E. coli; clarified bacterial cell lysate for the pull-down
  IC50: ~5 nM
